# Reference: US6034062A, “Bone morphogenetic protein (BMP)-9 compositions and their uses” (Genetics Institute, Inc., priority 1997, dated 2000)
# What was measured:
# [1] = Ectopic bone formation in vivo (implant); set-up: species or system rat; details: 25 μg/implant, after 10 days of implantation
# From the text: A modified version of the rat bone formation assay described in Sampath and Reddi, Proc. Natl. Acad. Sci. USA 80:6591-6595 (1983) is used to evaluate bone and/or cartilage activity of the BMP proteins. This modified assay is herein called the Rosen-modified Sampath-Reddi assay. The ethanol precipitation step of the Sampath-Reddi procedure is replaced by dialyzing (if the composition is a solution) or diafiltering (if the composition is a suspension) the fraction to be assayed against water. The solution or suspension is then redissolved in 0.1% TFA, and the resulting solution added to 20mg of rat matrix. A mock rat matrix sample not treated with the protein serves as a control. This material is frozen and lyophilized and the resulting powder enclosed in #5 gelatin capsules. The capsules are implanted subcutaneously in the abdominal thoracic area of 21-49 day old male Long Evans rats. The implants are removed after 7-14 days. […]
# The other half of each implant is fixed and processed for histological analysis. […] glycolmethacrylate sections are stained with Von Kossa and acid fuschin to score the amount of induced bone and cartilage formation present in each implant. […] In a modified scoring method, three non-adjacent sections are evaluated from each implant and averaged. […]
# [2] = tested on: W-20-17; experiment: Alkaline phosphatase activity in W-20-17 osteoprogenitor cell line; type: cell-based; details: dose responsive
# Experimental: W-20 cells are plated into 96 well tissue culture plates at a density of 10,000 cells per well in 200 μl of media (DME with 10% heat inactivated fetal calf serum, 2 mM glutamine and 100 U/ml+100 μg/ml streptomycin. The cells are allowed to attach overnight in a 95% air, 5% CO2 incubator at 37° C.
# The 200 μl of media is removed from each well with a multichannel pipettor and replaced with an equal volume of test sample delivered in DME with 10% heat inactivated fetal calf serum, 2 mM glutamine and 1% penicillin-streptomycin. Test substances are assayed in triplicate.
# The test samples and standards are allowed a 24 hour incubation period with the W-20 indicator cells. After the 24 hours, plates are removed from the 37° C. incubator and the test media are removed from the cells.
# The W-20 cell layers are washed 3 times with 200 μl per well of calcium/magnesium free phosphate buffered saline and these washes are discarded.
# 50 μl of glass distilled water is added to each well and the assay plates are then placed on a dry ice/ethanol bath for quick freezing. Once frozen, the assay plates are removed from the dry ice/ethanol bath and thawed at 37° C. […]
# The spectrophotometric absorbance for each well is read at a wavelength of 405 nanometers. […] For example, using known amounts of p-nitrophenol phosphate, absorbance values are generated.
# [3] = tested on: A-549 lung epithelial cells; experiment: Cell proliferation, [3H]thymidine incorporation, A-549; type: cell-based; details: subconfluent, 24 h
# Experimental: (§1) Several cell lines are tested for BMP-9 responsiveness in vitro. Cell proliferation, as indicated by [^3 H]thymidine incorporation, is determined in cell lines derived from kidney and lung. Cell proliferation is determined by measuring [^3 H]thymidine incorporation in subconfluent cells treated for 24 h with or without growth factors. NRK-52E (ATCC CRL 1571), WI-38 (ATCC CCL-75), CCD-11Lu (ATCC CCL-202), CCD-16Lu (ATCC CCL-204), and A-549 (ATCC CCL-185) cell lines are placed at 10^4 cells/well in 96 well plates and assayed for [^3 H]thymidine incorporation as described above. IMCD-3 cells (ATCC #CRL-2123) are cultured in a collagen matrix as described by Barros et al., PNAS USA 92:4412-4416 (1995), and treated with growth factors for 6 days to allow tubule formation.
# [4] = tested on: IMCD-3 cells; experiment: IMCD-3 cell condensation and tubulogenesis in collagen matrix; type: cell-based; details: IMCD-3 cells in 3-dimensional collagen gel, 100 ng/ml, 6 days, serum-free
# Experimental: as §1
# In contrast, BMP-9 appeared to stimulate proliferation in several fibroblast cell lines derived from lung. […] The effect of rhBMP-9 on tubulogenesis was examined in IMCD-3 cells, another epithelial kidney cell line. […] It is therefore contemplated that both lung and kidney cells are physiological targets for BMP-9.
# [5] = tested on: NRK-52E kidney epithelial cells; experiment: Cell proliferation, [3H]thymidine incorporation, NRK-52E; type: cell-based; details: subconfluent, 24 h
# Experimental: as §1
# [6] = tested on: WI-38 cells; experiment: Cell proliferation, [3H]thymidine incorporation, WI-38; type: cell-based; details: high doses of rhBMP-9, 24 h
# Experimental: as §1
molecule,measurement,setting,value
"BMP-9: recombinant human bone morphogenetic protein-9, mature amino acids #1-#110 of SEQ ID NO:9, expressed in CHO cells (protein, 125I-iodinated as tracer; unlabelled BMP-9 used as the displacing ligand) TRECSRSCPRTAPQRQVRAVTRRTRMAHVAAGSTLARRKRSAGAGSHCQKTSLRVNFEDIGWDSWIIAPKEYEAYECKGGCFFPLADDVTPTKHAIVQTLVHLKFPTKVG",ectopic bone formation,[1],inducing cartilage and bone tissue
same,"ED50, stimulation of alkaline phosphatase activity",[2],4 ng/mL
same,cell proliferation ([3H]thymidine incorporation),[3],inhibited proliferation
same,cell condensation and tubulogenesis,[4],did not induce tubules and inhibited the cell condensations and tubule formation observed under control conditions
same,cell proliferation ([3H]thymidine incorporation),[5],inhibited proliferation
same,cell proliferation ([3H]thymidine incorporation),[6],statistically significant stimulation
